Experiment [1] deals with AP2 core. The experiment in a line: BLI of AP2 core binding to immobilized GST-FCHO linkers. As to conditions: BLI equilibrium analysis, GST-linker on anti-GST biosensors, 25°C, near-physiological conditions, AP2 core closed. The protocol:
Real-time kinetic measurements of AP2 core binding to immobilized GST-FCHO1 linker and GST-FCHO2 linker at 25°C were conducted using an Octet RED96 (Pall FortéBio). AP2 concentrations varied by twofold dilution series (13.5 to 0.8 and 10.0 to 0.2 μM, respectively). Samples and buffers were dispensed into 96-well microtiter plates (Greiner) at a volume of 200 μl per well. Anti-GST biosensors (Pall FortéBio) were incubated in the specific assay buffer for at least 30 min before loading with the appropriate GST-FCHO linker for 5 min, followed by blocking with GST-ARRS control for 10 min. Negative controls were analyzed with biosensors uniquely loaded with the GST-ARRS control. Every binding experiment consisted of three steps: incubation for 10 min in the specific assay buffer, followed by 15 min of incubation with AP2 in the same buffer (association phase), and then by 10 min of incubation with the same buffer without AP2 to measure AP2 off rate (dissociation phase). […]
Data were processed with the Octet Data Acquisition 7.0 software, individually fitted using ForteBio Analysis software 7.0, and subsequently further analyzed with the PRISM software (GraphPad) to determine equilibrium dissociation constants (KD). The maximum binding capacity of each biosensor was scaled with respect to each other, according to the molecular weight of the AP2 analyzed.

The test system of experiment [2] is AP2 core. Nature of the experiment: Liposome spin-downs / GSH Sepharose pull-down of AP2 core with GST-FCHO2 linker. It is filed as biochemical. The conditions noted are these: for increase in steady-state efficiency of AP2 membrane recruitment: GST-FCHO2 vs GST-ARRS control, densitometry, 3 independent experiments. The protocol:
GST-FCHO2 WT linker or a nonbinding control (GST-ARRS control) at a final concentration of 30 μM was incubated at 4°C for 30 min with AP2 core at a concentration of 2.5 μM, in 95% HKT buffer with lysozyme (0.2 mg/ml) as a “carrier,” AEBSF (25 μg/ml), and 5 mM DTT. Core buffer (contributed by the purified AP2) was restricted to 5% of the volume. The mixture was then centrifuged briefly to remove any insoluble material. Samples were removed and added to either an equal volume of liposomes [containing phosphatidylcholine (PC)/phosphatidylethanolamine (PE), PC/PE/PS/PtdIns(4,5)P2, or PC/PE/PS/ PtdIns(4,5)P2/TGN38] or an equal bed volume of GSH Sepharose beads prewashed into HKT buffer. Final concentrations were therefore 15 μM (GST-FCHO2/ARRS) and 1.25 μM AP2. The mixtures were incubated for 30 min at 21°C with continuous gentle inversion, then the liposomes were pelleted by centrifugation, supernatants were removed, and the pellets resuspended in an equal volume before the addition of SDS loading dye and analysis by SDS-PAGE. The GSH Sepharose beads were washed three times with 1 ml of HKT supplemented with lysozyme (0.2 mg/ml), AEBSF (25 μg/ml), and 5 mM DTT, then resuspended in the same buffer, and analyzed by SDS-PAGE. All experiments were done in triplicate.

Experimental findings from PMC9054013, “FCHO controls AP2’s initiating role in endocytosis through a PtdIns(4,5)P2-dependent switch” (Science Advances, 2022) are described below.

Where “and” joins values, the source holds several entries; their conditions need not be identical. Identical values can stand only once.

B1: FCHO2 linker: FCHO2 interdomain linker wt, residues 314 to 444, GST fusion (protein)
chain: NIPDVDEEGYSIKPETNQNDTKENHFYSSSDSDSEDEEPKKYRIEIKPMHPNNSHHTMASLDELKVSIGNITLSPAISRHSPVQMNRNLSNEELTKSKPSAPPNEKGTSDLLAWDPLFGPSLDSSSSSSLT
modifications: left off: GST, end not stated, kept
notes: FCHO2 interdomain linker wt, residues 314 to 444, GST fusion
By Kd is commonly meant the constant that tells how readily two partners part at equilibrium. A high value points to lower affinity. As for B1, the equilibrium dissociation constant (Kd) at AP2 core [1] was ~10 µM and 9.8 µM. The “ratio of FCHO2:AP2 on beads relative to PtdIns(4,5)P2-containing liposomes” value with AP2 core [2] (GST-FCHO2 linker 15 μM, AP2 core 1.25 μM, three independent experiments) is ~ 20 fold. Further, the “increase in steady-state efficiency of AP2 membrane recruitment” value is recorded as ~ 13% in the experiment on AP2 core [2] (PtdIns(4,5)P2-only liposomes); ~ 22% with AP2 core [2] (liposomes containing both PtdIns(4,5)P2 and cargo).

B2: FCHO1 linker: FCHO1 interdomain linker wt (N123C), residues 316 to 444, GST fusion (protein)
chain: TCPEVDEEGFTVRPDVTQNSTAEPSRFSSSDSDFDDEEPRKFYVHIKPAPARAPACSPEAAAAQLRATAGSLILPPGPGGTMKRHSSRDAAGKPQRPRSAPRTSSCAERLQSEEQVSKNLFGPPLESAF
modifications: left off: GST, end not stated, kept
notes: FCHO1 interdomain linker wt (N123C), residues 316 to 444, GST fusion
For B2, the Kd at AP2 core [1] was ~10 µM and 8.5 µM.
